Source: US10449259B2, “Enzyme-responsive peptide nanofiber compositions and uses thereof” (Cornell University, priority 2015, dated 2019)
Primed or numbered codes have the meaning given here. *: point of attachment. mPEG2000 = methoxypolyethylene glycol polymer of 2 kDa, conjugated at the peptide N-terminus; FITC = O=C1OC2(c3ccc(O)cc3Oc3cc(O)ccc32)c2ccc(NC(=S)*)cc21; FITC′ = fluorescein isothiocyanate label; mPEG2000(3) = 2 kDa mPEG at N-terminus; Cy5.5 = Cy5.5 fluorophore

Columns and labels:
[1] = system: MDA-MB-468 tumors; assay: In vivo fluorescence monitoring of distribution after tail vein injection, MDA-MB-468 tumors; set-up: species or system nude mice; conditions: 0.5 nmol of fluorophore content, 48 hours post-injection
Protocol: Similar results were observed when the animals were injected with GSH-NFP nanofibers having a homogenous length of 400 nm. FIGS. 16A and 16B (white arrows).

[2] = system: triple-negative breast cancer MDA-MB-231 cells; assay: CellTiter-Glo luminescent cell viability (cytotoxicity) assay, MDA-MB-231; type: cell-based, human; conditions: for IC50: 5 days of incubation, concentration according to DM1 content, mean ± SD, triplicate; for toxicity of naked nanofibers: below a concentration of 1 μM
Protocol: (§1) The cytotoxicity of drug-loaded NFP1 and NFP2 nanofibers was assessed using the CellTiter-Glo Luminescent Cell Viability Assay (Promega, Madison, Wis.) as previously described in Junttila et al., Breast Cancer Res. Treat. 128 (2), 347-356 (2011). Briefly, cells were seeded on a 96-well plate (2×10^3/well for MDA-MB-231 and MDA-MB-468 and 2×10^4/well for BT474) and were allowed to stabilize overnight. […] After 5 days of incubation, CellTiter-Glo reagent (100 μL) was added to each well. The generated oxyluciferin was quantified for emitted luminescence using a microplate reader (Tecan US Inc., Morrisville, N.C.). All experiments were performed in triplicate, and the results were presented as mean±standard deviation. Statistical analyses were performed using Graph Pad Prism 6.0 software. All data were normalized to the values obtained with the untreated control cells, and half maximal inhibitory concentrations (IC50) were calculated by fitting the obtained data to a sigmoidal curve.
(§2) The cytotoxicity of the DM1-loaded nanofibers was evaluated using various human HER2-positive breast cancer (BT474) and triple-negative breast cancer (MDA-MB-231 and MDA-MB-468) cell lines as ex vivo models. A luminescent cell viability assay was employed to determine the cell viability through quantification of the adenosine triphosphate (ATP) produced by metabolically active cells. This assay offered more accurate and reproducible results compared to the widely used MTS assay (data not shown). Because the cell killing of DM1 is slow, the assays were performed following the incubation of the tested samples for 5 days, as previously described in Junttila et al., Breast Cancer Res. Treat. 128 (2), 347-356 (2011).

[3] = system: triple-negative breast cancer MDA-MB-468 cells; assay: CellTiter-Glo luminescent cell viability (cytotoxicity) assay, MDA-MB-468; type: cell-based, human; conditions: for IC50: 5 days of incubation, concentration according to DM1 content, mean ± SD, triplicate; for toxicity of naked nanofibers: below a concentration of 1 μM
Protocol: as §1, §2

[4] = system: HER2-positive breast cancer (BT474) cells; assay: CellTiter-Glo luminescent cell viability (cytotoxicity) assay, BT474; type: cell-based, human; conditions: 5 days of incubation, concentration according to DM1 content, mean ± SD, triplicate
Protocol: Briefly, cells were seeded on a 96-well plate (2×10^3/well for MDA-MB-231 and MDA-MB-468 and 2×10^4/well for BT474) and were allowed to stabilize overnight. […] After 5 days of incubation, CellTiter-Glo reagent (100 μL) was added to each well. The generated oxyluciferin was quantified for emitted luminescence using a microplate reader (Tecan US Inc., Morrisville, N.C.). […] Statistical analyses were performed using Graph Pad Prism 6.0 software. All data were normalized to the values obtained with the untreated control cells, and half maximal inhibitory concentrations (IC50) were calculated by fitting the obtained data to a sigmoidal curve.
The cytotoxicity of the DM1-loaded nanofibers was evaluated using various human HER2-positive breast cancer (BT474) and triple-negative breast cancer (MDA-MB-231 and MDA-MB-468) cell lines as ex vivo models. A luminescent cell viability assay was employed to determine the cell viability through quantification of the adenosine triphosphate (ATP) produced by metabolically active cells. […] Because the cell killing of DM1 is slow, the assays were performed following the incubation of the tested samples for 5 days, as previously described in Junttila et al., Breast Cancer Res. Treat.

[5] = molecular target: T1, CathB (purified from bovine spleen) (Bos taurus, UniProt P07688); assay: Enzyme digestion study with CathB (HPLC, MALDI-TOF, TEM, fluorescence); type: biochemical; conditions: for CathB digestion, peptide fragments by HPLC: 50 μM peptide content, sodium acetate buffer pH 4, 24 hours; for CathB digestion, peptide fragments by HPLC / fluorescence change of quenched nanofibers after CathB digestion: CathB 0.3 U; for morphological change in response to CathB digestion (TEM): 24 hour incubation with the enzyme; for fluorescence change of quenched nanofibers after CathB digestion: 0.1 μM peptide content, pH 4, 24 hours
T1 construct: CathB (purified from bovine spleen); purchased EMD Millipore (Billerica, Mass.); host or cells: bovine spleen (tissue-purified)
Protocol: NFP1 and NFP2 nanofibers (50 μM of peptide content) were incubated with CathB (0.3 U) in sodium acetate buffer (50 μM; pH 4). Nanofibers incubated with buffer only were used as the negative controls. After 24 hours, the samples were taken out for TEM, rp-HPLC, and MALDI-TOF analysis.
Intact or digested NFP1 and NFP2 nanofibers (10 μM of peptide content) in buffer (20 μL) were transferred onto Formvar/carbon-coated 400 mesh copper grids (Electron Microscopy Sciences, Hatfield, Pa.). Excess nanofibers were blotted off using filter paper and the samples were stained with 0.5% (v/v) uranyl formate solution (20 μL). After drying at room temperature, the grids were examined under TEM (JEOL JEM-1400 LaB6 TEM operating at 120 Kv).

## Cn1cnc(N)c2ncnc1-2 [3MA]
[1]
  tumoral uptake relative to Cy5.5: increased tumoral uptake

## COc1cc2cc(c1Cl)N(C)C(=O)C[C@H](OC(=O)[C@H](C)N(C)C(=O)CCS)[C@]1(C)O[C@H]1[C@H](C)[C@@H]1C[C@@](O)(NC(=O)O1)[C@H](OC)/C=C/C=C(\C)C2 [DM1, N2′-deacetyl-N2′-(3-mercapto-1-oxopropyl)-maytansine, reference compound]
[2]
  IC50: 35.4 ± 4.2 nM
[3]
  IC50: 21.9 ± 4.1 nM
[4]
  IC50: 68.1 ± 5 nM

## FITC-NFP1: mPEG2000, hexalysine motif, self-assembling domain KLDLKLDLKLDLK and FITC fluorophore (mPEG2000-KKKKKKKLDLKLDLKLDLK(FITC)-NH2; not fully specified)
[5]
  CathB digestion, peptide fragments by HPLC: multiple peptide fragments
  morphological change in response to CathB digestion (TEM): disintegrated and became shorter in length

## FITC-NFP2: mPEG2000, self-assembling domain KLDLKLDLKLDLK and FITC fluorophore (mPEG2000-KLDLKLDLKLDLK(FITC)-NH2; not fully specified)
[5]
  CathB digestion, peptide fragments by HPLC: only one fragment
  morphological change in response to CathB digestion (TEM): assembled into an interfibril network

## NFP1: naked nanofiber of mPEG peptides with hexalysine motif and self-assembling domain KLDLKLDLKLDLK (mPEG2000-KKKKKKKLDLKLDLKLDLK(FITC′)-NH2; not fully specified)
[2]; 10 μM
  toxicity of naked nanofibers at high concentration: significant cell growth inhibition
[2]
  toxicity of naked nanofibers: nontoxic
[3]; 10 μM
  toxicity of naked nanofibers at high concentration: significant cell growth inhibition
[3]
  toxicity of naked nanofibers: nontoxic
[5]; compared to NFP2
  sensitivity to CathB digestion: increased sensitivity to CathB digestion

## NFP2: naked nanofiber of mPEG peptides with self-assembling domain KLDLKLDLKLDLK, no hexalysine motif (mPEG2000-KLDLKLDLKLDLK(FITC′)-NH2; also: mPEG, site not given here)
[2]
  toxicity of naked nanofibers: nontoxic
[3]
  toxicity of naked nanofibers: nontoxic

## T-DM1 [reference compound]
[2]
  IC50: 68.9 ± 3.8 nM
[3]
  IC50: 65.2 ± 4.4 nM

## mPEG2000 KLDLKLDLKLDLK-Cy5.5 ({mPEG2000(3)}-KLDLKLDLKLDLK-{Cy5.5}) [Cy5.5-NFP2, optically quenched nanofiber prepared using Cy5.5-conjugated peptide constructs only]
[5]
  fluorescence change of quenched nanofibers after CathB digestion: only slightly increased

## mPEG2000-KKKKKKKLDLKLDLKLDLK-Cy5.5 (mPEG2000-KKKKKKKLDLKLDLKLDLK-{Cy5.5}) [Cy5.5-NFP1, optically quenched nanofiber prepared using Cy5.5-conjugated peptide constructs only]
[5]
  fluorescence change of quenched nanofibers after CathB digestion: recovery of the fluorescence signal
